Results on 18 molecules are retold here after patent US20110052582A1 (Hoffmann-La Roche, published 2011).

The target of the assay is T1, Soluble CDCP1 extracellular domain (CDCP1-ECD) (SEQ ID NO:30) fused to Streptavidin Binding Protein (SBP) (human, UniProt Q9H5V8 30-663).
T1 construct: also called SBP-CDCP1-ECD
T1 sequence: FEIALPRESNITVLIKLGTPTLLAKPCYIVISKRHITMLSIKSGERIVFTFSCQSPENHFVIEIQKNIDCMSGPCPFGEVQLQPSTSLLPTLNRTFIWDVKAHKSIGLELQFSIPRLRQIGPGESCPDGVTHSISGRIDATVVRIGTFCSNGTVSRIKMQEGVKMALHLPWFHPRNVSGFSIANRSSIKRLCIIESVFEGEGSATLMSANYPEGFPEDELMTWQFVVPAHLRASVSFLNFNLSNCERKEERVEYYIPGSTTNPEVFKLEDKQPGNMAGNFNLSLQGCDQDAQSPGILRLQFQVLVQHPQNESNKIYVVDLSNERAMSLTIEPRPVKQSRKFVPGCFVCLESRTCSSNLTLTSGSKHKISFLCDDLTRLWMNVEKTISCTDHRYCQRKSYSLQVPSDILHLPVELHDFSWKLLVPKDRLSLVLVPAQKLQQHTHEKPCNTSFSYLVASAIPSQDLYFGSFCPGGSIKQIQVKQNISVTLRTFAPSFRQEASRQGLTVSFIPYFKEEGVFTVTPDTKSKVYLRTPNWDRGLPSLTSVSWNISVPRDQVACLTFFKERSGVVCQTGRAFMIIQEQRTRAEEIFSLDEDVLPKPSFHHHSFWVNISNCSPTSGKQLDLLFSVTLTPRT
The experiment in a line: ELISA on captured SBP-CDCP1-ECD, ratio relative to chimeric CUB4 (chHC4). The procedure, abridged:
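Streptavidin plates coated overnight at 2–8° C with SBP-CDCP1-ECD HEK293 supernatant (1:15–1:40). Antibodies, undiluted or 12-step dilution, bound 90 min at room temperature; HRP anti-human IgG 1 h, ABTS read at 405/492 nm, signal expressed relative to chimeric chHC4 reference.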
Background: In an ELISA, binding on a coated surface is turned into a signal by an enzyme label.

B1: hHC4-a / hLC4-a (antibody, V domains shown)
VH: EVQLVESGGGLVKPGGSLRLSCAASGFTFNSYGMSWVRQAPGKGLEWVSTISSGGSYTYYPDSVKGRFTISRDNAKNSLYLQMNSLRAEDTAVYYCARHPDYDGVWFAYWGQGTLVTVSS
VL: EIVLTQSPATLSLSPGERATLSCSVSSSVFYVHWYQQKPGQAPRLLIYDTSKLASGIPARFSGSGSGTDFTLTISSLEPEDFAVYYCQQWNSNPPTFGGGTKVEIK
Consider B1, for which the relative binding ratio turned out to be 0.38.

B2: hHC4-c / hLC4-M (antibody, V domains shown)
VH: EVQLVESGGGLVQPGGSLRLSCAASGFTFNSYGMSWVRQAPGKGLEWVATISSGGSYTYYPDSVKGRFTISRDNAKNSLYLQMNSLRAEDTAVYYCARHPDYDGVWFAYWGQGTLVTVSS
VL: EIVLTQSPATLSLSPGERATMSCGASSSVFYLHWYQQKPGLAPRLWIYDTSKLASGIPDRFSGSGSGTDFTLTISRLEPEDFAVYYCQQWNSNPPTFGGGTKVEIK
As for B2, the relative binding ratio stood at 0.71.

B3: hHC4-c / hLC4-L2 (antibody, V domains shown)
VH: EVQLVESGGGLVQPGGSLRLSCAASGFTFNSYGMSWVRQAPGKGLEWVATISSGGSYTYYPDSVKGRFTISRDNAKNSLYLQMNSLRAEDTAVYYCARHPDYDGVWFAYWGQGTLVTVSS
VL: EIVLTQSPATLSLSPGERATMSCSVSSSVFYLHWYQQKPGQAPRLWIYDTSKLASGIPARFSGSGSGTDFTLTISSLEPEDFAVYYCQQWNSNPPTFGGGTKVEIK
Consider B3, for which the relative binding ratio was found to be 0.53.

B4: hHC4-a / hLC4-c (antibody, V domains shown)
VH: EVQLVESGGGLVKPGGSLRLSCAASGFTFNSYGMSWVRQAPGKGLEWVSTISSGGSYTYYPDSVKGRFTISRDNAKNSLYLQMNSLRAEDTAVYYCARHPDYDGVWFAYWGQGTLVTVSS
VL: EIVMTQSPATLSVSPGERATLSCSVSSSVFYVHWYQQKPGQAPRLLIYDTSKLASGIPARFSGSGSGTEFTLTISSLQSEDFAVYYCQQWNSNPPTFGGGTKVEIK
Turning to B4, the relative binding ratio turned out to be 0.35.

B5: hHC4-b / hLC4-L2 (antibody, V domains shown)
VH: EVQLVESGGGLVKPGGSLRLSCAASGFTFNSYSMNWVRQAPGKGLEWVSSISSGGSYIYYADSVKGRFTISRDNAKNSLYLQMNSLRAEDTAVYYCARHPDYDGVWFAYWGQGTLVTVSS
VL: EIVLTQSPATLSLSPGERATMSCSVSSSVFYLHWYQQKPGQAPRLWIYDTSKLASGIPARFSGSGSGTDFTLTISSLEPEDFAVYYCQQWNSNPPTFGGGTKVEIK
For the molecule B5, the binding result is listed as “no binding”.

B6: hHC4-a / hLC4-b (antibody, V domains shown)
VH: EVQLVESGGGLVKPGGSLRLSCAASGFTFNSYGMSWVRQAPGKGLEWVSTISSGGSYTYYPDSVKGRFTISRDNAKNSLYLQMNSLRAEDTAVYYCARHPDYDGVWFAYWGQGTLVTVSS
VL: EIVLTQSPATLSLSPGERATLSCSVSSSVFYVHWYQQKPGQAPRLLIYDTSKLASGIPARFSGSGSGTDYTLTISSLEPEDFAVYYCQQWNSNPPTFGGGTKVEIK
Consider B6, for which the relative binding ratio turned out to be 0.36.

B7: hHC4-b / hLC4-K (antibody, V domains shown)
VH: EVQLVESGGGLVKPGGSLRLSCAASGFTFNSYSMNWVRQAPGKGLEWVSSISSGGSYIYYADSVKGRFTISRDNAKNSLYLQMNSLRAEDTAVYYCARHPDYDGVWFAYWGQGTLVTVSS
VL: EIVLTQSPATLSLSPGERATLSCRASSSVFYLHWYQQKPGQAPRLWIYDTSKLASGIPARFSGSGSGTDFTLTISSLEPEDFAVYYCQQWNSNPPTFGGGTKVEIK
For the molecule B7, the binding result is reported as “no binding”.

B8: hHC4-a / hLC4-d (antibody, V domains shown)
VH: EVQLVESGGGLVKPGGSLRLSCAASGFTFNSYGMSWVRQAPGKGLEWVSTISSGGSYTYYPDSVKGRFTISRDNAKNSLYLQMNSLRAEDTAVYYCARHPDYDGVWFAYWGQGTLVTVSS
VL: EIVMTQSPATLSVSPGERATLSCSVSSSVFYVHWYQQKPGQAPRLLIYDTSKLASGIPARFSGSGSGTEYTLTISSLQSEDFAVYYCQQWNSNPPTFGGGTKVEIK
Turning to B8, the relative binding ratio turned out to be 0.28.

B9: hHC4-c / hLC4-I (antibody, V domains shown)
VH: EVQLVESGGGLVQPGGSLRLSCAASGFTFNSYGMSWVRQAPGKGLEWVATISSGGSYTYYPDSVKGRFTISRDNAKNSLYLQMNSLRAEDTAVYYCARHPDYDGVWFAYWGQGTLVTVSS
VL: EIVMTQSPATLSLSPGERATLSCRASSSVFYLSWYQQKPGQAPRLWIYDTSKLASGIPARFSGSGSGTDFTLTISSLQPEDFAVYYCQQWNSNPPTFGGGTKVEIK
Consider B9, for which the binding result was “no binding”.

B10: hHC4-c / hLC4-L (antibody, V domains shown)
VH: EVQLVESGGGLVQPGGSLRLSCAASGFTFNSYGMSWVRQAPGKGLEWVATISSGGSYTYYPDSVKGRFTISRDNAKNSLYLQMNSLRAEDTAVYYCARHPDYDGVWFAYWGQGTLVTVSS
VL: EIVLTQSPATLSLSPGERATMSCRASSSVFYLHWYQQKPGQAPRLWIYDTSKLASGIPARFSGSGSGTDFTLTISSLEPEDFAVYYCQQWNSNPPTFGGGTKVEIK
Regarding B10, the relative binding ratio was determined as 0.45.

B11: hHC4-b / hLC4-b (antibody, V domains shown)
VH: EVQLVESGGGLVKPGGSLRLSCAASGFTFNSYSMNWVRQAPGKGLEWVSSISSGGSYIYYADSVKGRFTISRDNAKNSLYLQMNSLRAEDTAVYYCARHPDYDGVWFAYWGQGTLVTVSS
VL: EIVLTQSPATLSLSPGERATLSCSVSSSVFYVHWYQQKPGQAPRLLIYDTSKLASGIPARFSGSGSGTDYTLTISSLEPEDFAVYYCQQWNSNPPTFGGGTKVEIK
B11: the binding result is “no binding”.

B12: hHC4-b / hLC4-a (antibody, V domains shown)
VH: EVQLVESGGGLVKPGGSLRLSCAASGFTFNSYSMNWVRQAPGKGLEWVSSISSGGSYIYYADSVKGRFTISRDNAKNSLYLQMNSLRAEDTAVYYCARHPDYDGVWFAYWGQGTLVTVSS
VL: EIVLTQSPATLSLSPGERATLSCSVSSSVFYVHWYQQKPGQAPRLLIYDTSKLASGIPARFSGSGSGTDFTLTISSLEPEDFAVYYCQQWNSNPPTFGGGTKVEIK
Turning to B12, the binding result was “no binding”.

B13: hHC4-b / hLC4-M (antibody, V domains shown)
VH: EVQLVESGGGLVKPGGSLRLSCAASGFTFNSYSMNWVRQAPGKGLEWVSSISSGGSYIYYADSVKGRFTISRDNAKNSLYLQMNSLRAEDTAVYYCARHPDYDGVWFAYWGQGTLVTVSS
VL: EIVLTQSPATLSLSPGERATMSCGASSSVFYLHWYQQKPGLAPRLWIYDTSKLASGIPDRFSGSGSGTDFTLTISRLEPEDFAVYYCQQWNSNPPTFGGGTKVEIK
Regarding B13, the binding result is reported as “no binding”.

B14: hHC4-c / hLC4-K (antibody, V domains shown)
VH: EVQLVESGGGLVQPGGSLRLSCAASGFTFNSYGMSWVRQAPGKGLEWVATISSGGSYTYYPDSVKGRFTISRDNAKNSLYLQMNSLRAEDTAVYYCARHPDYDGVWFAYWGQGTLVTVSS
VL: EIVLTQSPATLSLSPGERATLSCRASSSVFYLHWYQQKPGQAPRLWIYDTSKLASGIPARFSGSGSGTDFTLTISSLEPEDFAVYYCQQWNSNPPTFGGGTKVEIK
For B14, the relative binding ratio was determined as 0.83.

B15: hHC4-b / hLC4-J (antibody, V domains shown)
VH: EVQLVESGGGLVKPGGSLRLSCAASGFTFNSYSMNWVRQAPGKGLEWVSSISSGGSYIYYADSVKGRFTISRDNAKNSLYLQMNSLRAEDTAVYYCARHPDYDGVWFAYWGQGTLVTVSS
VL: EIVMTQSPATLSLSPGERATMSCRASSSVFYLHWYQQKPGQAPRLWIYDTSKLASGIPARFSGSGSGTDFTLTISSLQPEDFAVYYCQQWNSNPPTFGGGTKVEIK
For B15, the binding result was “no binding”.

B16: hHC4-b / hLC4-I (antibody, V domains shown)
VH: EVQLVESGGGLVKPGGSLRLSCAASGFTFNSYSMNWVRQAPGKGLEWVSSISSGGSYIYYADSVKGRFTISRDNAKNSLYLQMNSLRAEDTAVYYCARHPDYDGVWFAYWGQGTLVTVSS
VL: EIVMTQSPATLSLSPGERATLSCRASSSVFYLSWYQQKPGQAPRLWIYDTSKLASGIPARFSGSGSGTDFTLTISSLQPEDFAVYYCQQWNSNPPTFGGGTKVEIK
Turning to B16, the binding result was “no binding”.

B17: hHC4-c / hLC4-J (antibody, V domains shown)
VH: EVQLVESGGGLVQPGGSLRLSCAASGFTFNSYGMSWVRQAPGKGLEWVATISSGGSYTYYPDSVKGRFTISRDNAKNSLYLQMNSLRAEDTAVYYCARHPDYDGVWFAYWGQGTLVTVSS
VL: EIVMTQSPATLSLSPGERATMSCRASSSVFYLHWYQQKPGQAPRLWIYDTSKLASGIPARFSGSGSGTDFTLTISSLQPEDFAVYYCQQWNSNPPTFGGGTKVEIK
Consider B17, for which the relative binding ratio amounted to 0.42.

B18: hHC4-b / hLC4-L (antibody, V domains shown)
VH: EVQLVESGGGLVKPGGSLRLSCAASGFTFNSYSMNWVRQAPGKGLEWVSSISSGGSYIYYADSVKGRFTISRDNAKNSLYLQMNSLRAEDTAVYYCARHPDYDGVWFAYWGQGTLVTVSS
VL: EIVLTQSPATLSLSPGERATMSCRASSSVFYLHWYQQKPGQAPRLWIYDTSKLASGIPARFSGSGSGTDFTLTISSLEPEDFAVYYCQQWNSNPPTFGGGTKVEIK
For the molecule B18, the binding result was “no binding”.
